# Experimental data reported in patent publication US9187558B2, “Anti-epithelial cell adhesion molecule (EpCAM) antibodies and methods of use thereof” (ACADEMIA SINICA, priority 2012, dated 2015).
# Assays:
# [1] = tested on: release of EpEX; assay: Release of EpEX into HCT116 culture supernatants (immunoprecipitation and Western blot); format: cell-based, human; settings: HCT116 cells, 24 h; DAPT 50 μM, TAPI 40 μM
# Excerpt: (§1) Immunoprecipitation and Western Blot Analysis. […] The supernatants were immunoprecipitated using anti-EpCAM antibodies.
# [2] = tested on: EpICD cleavage; assay: EpICD cleavage and cellular localization (confocal immunofluorescence, Western blot); format: cell-based, human; settings: for EpICD cleavage: 24 h, TAPI 40 μM
# Method: Immunofluorescent Staining. Cells cultured on cover slips were fixed in paraformaldehyde, washed, and then blocked with 1% bovine serum albumin in PBS for 10 min. Cells were incubated at room temperature with primary antibodies in 1% bovine serum albumin. After 1 h incubation, cells were washed and incubated with fluorescein isothiocyanate (FITC) goat anti-mouse antibody (Jackson ImmunoResearch Laboratories), Alexafluor488 goat-anti-mouse or Alexaflour568 goat-anti-rabbit (INVITROGEN®) antibodies. 4′,6-Diamidino-2-phenylindole (DAPI) was added for nuclear counter staining.
# as §1
# [3] = tested on: c-MYC, OCT4, NANOG, and SOX2 promoters; assay: Luciferase reporter assay of reprogramming gene promoters; format: cell-based, human
# Method: Luciferase Reporter Assay. Cells were seeded in a plate and co-transfected with pcDNA3.1, EpCAM, EpICD, or EpEX-expressing vectors (400 ng) and pGL4-Oct4-Luc, Nanog-Luc, Sox2-Luc, or c-Myc-Luc-expressing plasmid (100 ng) by PolyJET for 24 h. Promoter activities were measured by the Dul-Glo Luciferase kit (Promega), and the transfected efficiency was normalized by co-transfection with pRL-TK (20 ng) as an internal control.
# [4] = tested on: HCT116 sphere cells; assay: Spheroid (tumorsphere formation) assay; format: cell-based, human
# Method: Spheroid Assay. For spheroid formation, culture cells were disassociated into single cells. 5×10^3 cells were seeded at an ultra-low 6-well plate (CORNING™ for 6 days and were maintained in DMEM/F12 supplemented with B27 (INVITROGEN®), EGF (10 ng/ml) and FGF (25 ng/ml) twice a week. The spheres were counted under a microscope. For serum-induced differentiation assay, tumorspheres were cultured in matrigel-coated plate supplemented with DMEM containing 10% FBS for 7 days to induce the differentiation process.
# [5] = tested on: tumor invasiveness; assay: Invasion assay (Matrigel transwell); format: cell-based
# Method: Colony Formation and Invasion Assay. For colony formation assay, cells were seeded at a density of 5×10^3 in 6-well plate for 10 day, followed by fixing and staining with crystal violet. For invasion assay, cells (1×10^5) were seeded at a transwell insert (8-μm polycarbonate Nucleopore filters, Corning) coated with Matrigel (BD Biosciences) at room temperature for 30 min to form a genuine reconstituted basement membrane. After 24 h incubation, cells were fixed with methanol for 10 min, and non-invaded cells were then removed by cotton swap. The invaded cells were observed by staining with DAPI, imaged under an inverted fluorescent microscopy (Zeiss), and quantified by ImageJ software.
# [6] = tested on: vimentin, snail, and slug; assay: EMT gene expression; format: cell-based, human
# Method: as §1
# RNA Extraction and Quantitative Real-Time RT-PCR. Total RNAs were prepared from the cell lines using ULTRASPEC RNA isolation reagent (Biotecx Laboratories, Houston, Tex.). cDNAs were reverse-transcribed using Super-Script III RNaseH-reverse transcriptase (INVITROGEN®, Carlsbad, Calif.) according to the manufacturer's instructions. Quantitative RT-PCR was performed by using the LightCycler480 System (Roche Applied Science). The gene expression level of each sample was normalized to the expression level of GAPDH in the same sample. The reactions were performed in triplicate, and S.D. values were calculated.
# [7] = tested on: SAS-derived oral cancer xenografts; assay: SAS-derived oral cancer xenograft antitumor efficacy; settings: n=6
# Method: Animal Model for Analysis of Antitumor Efficacy. […] Treatments were administered through tail vein injection, 10 mg/kg twice a week, for 4 consecutive weeks, with a total dose of 80 mg/kg. […] The tumor volumes were calculated as length×(width)^2×0.52.
# [8] = tested on: HCT116 and tumorsphere (HCT116 sphere) cells; assay: Hypodiploid DNA content by flow cytometry with PI staining; format: cell-based, human; settings: tumor and tumorsphere cells
# Method: (§2) Apoptosis Assays. Cells were separately seeded and treated with 0-20 μg/ml mAbs for 6 h. Apoptotic cells were detected by Annexin V-FITC and PI and analyzed by a flow cytometer (BD imnmmunocytometry systems, San Jose, Calif.). Early apoptosis was measured with the Annexin V-FITC Apoptosis Detection kit II (BD Pharmingen, La Jolla, Calif.). Apoptotic nuclei were detected with propidium iodide (PI) staining.
# [9] = tested on: EpCAM mutants (Y95, D96 on EGF-II domain); settings: mutations in positions Y95 or D96 on EGF-II domain; 1 μg/ml antibody
# Method: HEK293 cells at 80%-90% confluency in 6-well plates were transfected with plasmids of various EpCAMs. After two days transfection, the cells were washed with PBS. Cells were extracted with RIPA buffer, supplemented with a protease inhibitor mixture tablet and spun at 20,000 g for 30 min at 4° C. […] The signals were developed using enhanced chemiluminescence reagents (ECL) (Thermo Scientific, Rockford, Ill.).
# [10] = tested on: SAS and HCT116 cell lines; assay: Apoptosis assay, Annexin V-FITC and PI flow cytometry; format: cell-based, human; settings: 0-20 μg/ml, 6 h
# Method: as §2
# [11] = tested on: CCD-1112Sk normal cells; assay: Cellular ELISA binding to normal foreskin cells; parameters: species or system human
# [12] = tested on: human cancer cells (SAS, NPC039, HCT116, SKOV3); assay: Cellular ELISA, Western blot and FACS binding to cancer cell lines; settings: Western blot, FACS
# Method: ELISA. 96-well plates (Corning Costar, St. Louis, Mo.) were seeded with SAS (oral carcinoma), NPC, HCT116 (colon cancer), SKOV3 (ovarian cancer cell line), NNM and HUVEC cells. The plates fixed with 2% paraformaldehyde and blocked with 1% bovine serum albumin. OCAb9-1 was added to the plates and incubated for 1 h. The plates were then washed with PBS containing 0.1% (w/v) TWEEN® 20 (PBST0.1) and incubated with horseradish peroxidase-conjugated anti-mouse IgG (Jackson ImmunoResearch Laboratories) for another 1 h. After washing, the plates were incubated with substrate solution o-phenylenediamine dihydrochloride (SIGMA™). The reaction was stopped by adding 3 N HCl, and the plates were read using a microplate reader at 490 nm.
# Flow Cytometry. SAS, HCT116 and NNM were dissociated with 0.25% trypsin-EDTA (1 mM) (INVITROGEN®) for 1-3 min. Cells were washed with fluorescence-activated cell sorting buffer (PBS containing 1% fetal calf serum) and then incubated for 1 h at 4° C. in fluorescence-activated cell sorting buffer with the OCAb9-1 and EpAb mAbs at dilutions that ranged from […]. Phycoerythrin-conjugated goat anti-mouse IgG was used as a secondary antibody (dilution 1:250; Jackson ImmunoResearch Laboratories (West Grove, Pa.) for 30 min at 4° C. After the final wash, the cells were re-suspended with 1% FBS in PBS and analyzed by flow cytometry (BD, San Jose, Calif.). […]
# [13] = HCT116 cells, sEpEX 2.5, 5 μg/ml
molecule,measurement,setting,value
TAPI,release of EpEX,[1],blocked the release of EpEX
same,EpICD cleavage,"[2]; HCT116 cells, DAPT 50 μM",inhibited EpICD cleavage
C[C@H](NC(=O)Cc1cc(F)cc(F)c1)C(=O)N[C@H](C(=O)OC(C)(C)C)c1ccccc1 [DAPT],"EpCAM-induced transcriptional activities of c-MYC, OCT4, NANOG, and SOX2",[3],blocked
same,release of EpEX,[1],blocked the release of EpEX
same,sphere-forming capacity,[4],decreasing
same,tumor invasiveness,[5],decreasing
same,"expressions of vimentin, snail, and slug",[6],suppressed
same,expression of soluble EpICD-v5 (10 kDa),[2]; 293T/EpCAM-v5 cells,reduced
same,EpICD cleavage,"[2]; HCT116 cells, DAPT 50 μM",inhibited EpICD cleavage
same,soluble EpICD signals in cytoplasm and nucleus,"[2]; HCT116 cells, DAPT 50 μM",blocked
"sEpEX: soluble extracellular domain of EpCAM (protein, UniProt P16422 24-265, looked up, extracellular domain, soluble extracellular domain of EpCAM) extracellular domain: QEECVCENYKLAVNCFVNNNRQCQCTSVGAQNTVICSKLAAKCLVMKAEMNGSKLGRRAKPEGALQNNDGLYDPDCDESGLFKAKQCNGTSMCWCVNTAGVRRTDKDTEITCSERVRTYWIIIELKHKAREKPYDSKSLRTALQKEITTRYQLDPKFITSILYENNVITIDLVQNSSQKTQNDVDIADVAYYFEKDVKGESLFHSKKMDLTVNGEQLDLDPGQTLIYYVDEKAPEFSMQGLK","reporter activities of c-MYC, OCT4, NANOG, and SOX2","[3]; HCT116 cells, sEpEX 2 μg/ml",induced reporter activities
same,induction of vimentin expression,[6]; [13],inductions
same,induction of EpICD cleavage,[2]; [13],inductions
"EpAb2-6: one of five newly generated anti-EpCAM mAbs; VH SEQ ID NO: 2, VL SEQ ID NO: 3 (antibody, listed as Homo sapiens, V domains shown) VH: EVQLVESGPELKKPGETVKISCKASGYTFTDYSMHWVKQAPGKGLKWMGWINTETGEPTFADDFKGRFAFSLETSARTTYLQINNLKNEDTATYFCARTAVYWGQGTSLTVSS VL: DIQLTQSPSSLSASLGERVSLTCRASQEISVSLSWLQQKPDGTIKRLIYATSTLDSGVPKRFSGSRSGSDYSLTISSLESEDFADYYCLQYASYPWTFGGGTKLEIKRADAAPTVS",tumor size of control PBS group relative to EpAb2-6 group,[7]; 10 mg/kg i.v. twice a week,1.5 fold
same,median overall survival of tumor-bearing mice,[7]; SAS xenograft,71 days
same,hypodiploid DNA content,[8],induced hypodiploid DNA content
same,relative binding activity to EpCAM mutants vs wild type,[9],markedly reduction
same,tumorsphere formation,[4]; 6 days treatment,suppressed tumorsphere formation effectively
same,induction of cancer cell apoptosis,[10],could induce cancer cell apoptosis
"hEpAb2-6: CDRs of EpAb2-6 grafted onto human IgG1 backbone; VH SEQ ID NO: 24, VL SEQ ID NO: 25 (antibody, V domains shown, human IgG1 backbone; Humanized VH domain; Humanized VL domain) VH: VKLQESGPELKKPGETVKISCKASGYTFTDYSMHWVKQAPGKGLKWMGWINTETGEPTYADDFKGRFAFSLETSASTAYLQINNLKNEDTATYFCARTAVYWGQGTTVTVSS VL: DIQMTQSPSSLSASLGERVSLTCRASQEISVSLSWLQQEPDGTIKRLIYATSTLDSGVPKRFSGSRSGSDYSLTISSLESEDFVDYYCLQYASYPWTFGGGTKLEIKRADAAPTVS",recognition of CCD-1112Sk normal cells,[11],not CCD-1112Sk normal cells
same,induction of cancer cell apoptosis,[10],induced cancer cell apoptosis
same,recognition of (binding to) human cancer cells,[12],recognized both SAS and HCT116 cancer cells
